What was measured:
[1] = molecular target: T1, eukaryotic initiation factor 4E (eIF4E) (UniProt P06730 1-217); experiment: fluorescence correlation spectroscopy
[2] = molecular target: T1, eukaryotic initiation factor 4E (eIF4E); experiment: fluorescence anisotropy decay

T1 sequence (P06730 whole entry): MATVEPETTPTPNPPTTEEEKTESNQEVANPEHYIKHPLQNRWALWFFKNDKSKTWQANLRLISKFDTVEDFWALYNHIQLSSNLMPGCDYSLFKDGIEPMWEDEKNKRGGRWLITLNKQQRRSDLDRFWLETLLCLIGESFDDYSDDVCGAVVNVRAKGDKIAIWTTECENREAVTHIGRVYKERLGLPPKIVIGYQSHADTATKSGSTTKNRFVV

Row | binding result [1] | binding result [2] | Binder
1 | binds |  | 4E-BP2 C121 (C35S/C73S/C121ins), non-phosphorylated, labelled with Atto488 at position 121 (natural protein, UniProt Q13542 1-120, looked up, Atto488 maleimide on the inserted cysteine at position 121) MSSSAGSGHQPSQSRAIPTRTVAISDAAQLPHDYSTTPGGTLFSTTPGGTRIIYDRKFLLDRRNSPMAQTPPSHLPNIPGVTSPGTLIEDSKVEVNNLNNLNNHDRKHAVGDDAQFEMDIC
2 | binds |  | 4E-BP2 C91 (C35S/C73S/S91C), non-phosphorylated, labelled with Atto488 at position 91 (natural protein, UniProt Q13542 1-120, looked up, Atto488 maleimide on cysteine 91) MSSSAGSGHQPSQSRAIPTRTVAISDAAQLPHDYSTTPGGTLFSTTPGGTRIIYDRKFLLDRRNSPMAQTPPSHLPNIPGVTSPGTLIEDCKVEVNNLNNLNNHDRKHAVGDDAQFEMDI
3 |  | binds | 4E-BP2 C35 (C73S), non-phosphorylated, labelled with Atto488 at position 35 (natural protein, UniProt Q13542 1-120, looked up, Atto488 maleimide on cysteine 35) MSSSAGSGHQPSQSRAIPTRTVAISDAAQLPHDYCTTPGGTLFSTTPGGTRIIYDRKFLLDRRNSPMAQTPPSHLPNIPGVTSPGTLIEDSKVEVNNLNNLNNHDRKHAVGDDAQFEMDI
4 | binds |  | 4E-BP2 C73 (C35S), non-phosphorylated, labelled with Atto488 at position 73 (natural protein, UniProt Q13542 1-120, looked up, Atto488 maleimide on cysteine 73) MSSSAGSGHQPSQSRAIPTRTVAISDAAQLPHDYSTTPGGTLFSTTPGGTRIIYDRKFLLDRRNSPMAQTPPCHLPNIPGVTSPGTLIEDSKVEVNNLNNLNNHDRKHAVGDDAQFEMDI
5 |  | binds | 4E-BP2 C14 (S14C/C35S/C73S), non-phosphorylated, labelled with Atto488 at position 14 (natural protein, UniProt Q13542 1-120, looked up, Atto488 maleimide on cysteine 14) MSSSAGSGHQPSQCRAIPTRTVAISDAAQLPHDYSTTPGGTLFSTTPGGTRIIYDRKFLLDRRNSPMAQTPPSHLPNIPGVTSPGTLIEDSKVEVNNLNNLNNHDRKHAVGDDAQFEMDI

Reference: article doi:10.1101/2022.01.14.476386 (bioRxiv, 2022)
